We go through 4 proteins from patent publication US20090042248.

The target of data set [1] is T1, C1r CCP1-CCP2-SP S654A, P00736.
T1 chain: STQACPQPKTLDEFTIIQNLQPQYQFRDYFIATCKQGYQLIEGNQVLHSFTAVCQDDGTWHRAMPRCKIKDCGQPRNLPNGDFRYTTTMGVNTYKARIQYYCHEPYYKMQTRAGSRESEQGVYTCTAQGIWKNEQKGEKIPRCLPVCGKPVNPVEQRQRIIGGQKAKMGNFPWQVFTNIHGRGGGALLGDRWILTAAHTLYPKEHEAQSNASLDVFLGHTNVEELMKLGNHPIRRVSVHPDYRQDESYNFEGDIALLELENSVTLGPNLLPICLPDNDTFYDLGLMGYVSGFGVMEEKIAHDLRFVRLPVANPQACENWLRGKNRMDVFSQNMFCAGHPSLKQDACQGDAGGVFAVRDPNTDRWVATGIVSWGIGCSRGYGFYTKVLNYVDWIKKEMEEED

The target of data set [2] is T2, C1r CCP2-SP S654A, P00736.
T2 chain: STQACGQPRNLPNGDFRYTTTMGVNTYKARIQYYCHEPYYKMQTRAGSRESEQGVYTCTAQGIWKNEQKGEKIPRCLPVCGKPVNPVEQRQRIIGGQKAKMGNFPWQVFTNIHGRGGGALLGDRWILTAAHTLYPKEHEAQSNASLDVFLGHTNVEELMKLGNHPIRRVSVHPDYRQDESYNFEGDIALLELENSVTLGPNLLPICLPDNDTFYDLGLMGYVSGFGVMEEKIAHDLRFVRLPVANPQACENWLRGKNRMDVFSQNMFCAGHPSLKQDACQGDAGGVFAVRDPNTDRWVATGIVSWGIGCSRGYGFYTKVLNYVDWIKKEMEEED

A further data set concerns the target T3, C1r SP S654A, P00736.
T3 chain: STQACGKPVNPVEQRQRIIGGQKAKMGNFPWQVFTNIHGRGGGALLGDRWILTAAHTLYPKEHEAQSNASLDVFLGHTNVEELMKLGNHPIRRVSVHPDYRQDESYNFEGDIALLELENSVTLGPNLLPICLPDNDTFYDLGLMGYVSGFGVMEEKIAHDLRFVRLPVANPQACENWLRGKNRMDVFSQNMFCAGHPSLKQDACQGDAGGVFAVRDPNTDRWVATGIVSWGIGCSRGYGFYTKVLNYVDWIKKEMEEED

Another data set has as its target T4, Proenzyme C1s, P09871.
T4 chain: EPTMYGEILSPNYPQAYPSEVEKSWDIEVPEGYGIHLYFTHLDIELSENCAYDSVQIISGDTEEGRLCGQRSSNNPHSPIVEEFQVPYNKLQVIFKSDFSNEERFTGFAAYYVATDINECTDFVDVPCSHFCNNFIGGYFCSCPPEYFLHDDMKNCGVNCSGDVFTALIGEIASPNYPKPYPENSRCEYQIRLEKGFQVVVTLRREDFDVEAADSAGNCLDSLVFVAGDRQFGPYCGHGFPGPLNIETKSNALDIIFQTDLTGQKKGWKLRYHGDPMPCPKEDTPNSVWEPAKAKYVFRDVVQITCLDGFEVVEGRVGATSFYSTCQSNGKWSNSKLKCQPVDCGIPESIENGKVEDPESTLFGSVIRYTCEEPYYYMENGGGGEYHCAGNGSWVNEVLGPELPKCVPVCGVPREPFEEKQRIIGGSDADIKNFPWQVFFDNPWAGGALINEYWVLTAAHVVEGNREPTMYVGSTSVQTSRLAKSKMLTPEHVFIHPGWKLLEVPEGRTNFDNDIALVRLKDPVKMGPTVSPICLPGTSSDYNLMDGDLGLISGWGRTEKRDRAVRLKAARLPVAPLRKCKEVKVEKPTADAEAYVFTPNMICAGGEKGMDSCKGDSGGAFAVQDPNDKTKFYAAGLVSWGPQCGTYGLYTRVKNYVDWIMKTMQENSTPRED

For a further data set, the target named is T5, Human C2, P06681.
T5 chain: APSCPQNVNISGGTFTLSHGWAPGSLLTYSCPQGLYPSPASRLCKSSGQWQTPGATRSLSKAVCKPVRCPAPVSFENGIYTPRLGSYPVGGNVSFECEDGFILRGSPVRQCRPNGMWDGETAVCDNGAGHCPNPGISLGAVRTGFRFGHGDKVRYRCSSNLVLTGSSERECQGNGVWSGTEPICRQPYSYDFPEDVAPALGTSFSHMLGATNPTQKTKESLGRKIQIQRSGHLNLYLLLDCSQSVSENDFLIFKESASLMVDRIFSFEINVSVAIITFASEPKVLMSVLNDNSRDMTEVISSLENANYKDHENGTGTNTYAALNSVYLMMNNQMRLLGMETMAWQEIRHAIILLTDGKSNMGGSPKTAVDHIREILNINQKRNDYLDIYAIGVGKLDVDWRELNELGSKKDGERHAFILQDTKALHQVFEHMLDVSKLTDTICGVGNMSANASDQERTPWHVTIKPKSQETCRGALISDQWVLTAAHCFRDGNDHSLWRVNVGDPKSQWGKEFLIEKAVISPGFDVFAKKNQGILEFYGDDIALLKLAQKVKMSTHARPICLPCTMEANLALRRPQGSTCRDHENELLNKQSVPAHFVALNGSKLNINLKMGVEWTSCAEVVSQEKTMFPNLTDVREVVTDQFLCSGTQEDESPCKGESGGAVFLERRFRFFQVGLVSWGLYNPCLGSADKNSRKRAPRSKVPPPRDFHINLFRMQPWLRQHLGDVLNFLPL

Data set [3] has as its target T6, alpha-2-macroglobulin, P01023.
T6 chain: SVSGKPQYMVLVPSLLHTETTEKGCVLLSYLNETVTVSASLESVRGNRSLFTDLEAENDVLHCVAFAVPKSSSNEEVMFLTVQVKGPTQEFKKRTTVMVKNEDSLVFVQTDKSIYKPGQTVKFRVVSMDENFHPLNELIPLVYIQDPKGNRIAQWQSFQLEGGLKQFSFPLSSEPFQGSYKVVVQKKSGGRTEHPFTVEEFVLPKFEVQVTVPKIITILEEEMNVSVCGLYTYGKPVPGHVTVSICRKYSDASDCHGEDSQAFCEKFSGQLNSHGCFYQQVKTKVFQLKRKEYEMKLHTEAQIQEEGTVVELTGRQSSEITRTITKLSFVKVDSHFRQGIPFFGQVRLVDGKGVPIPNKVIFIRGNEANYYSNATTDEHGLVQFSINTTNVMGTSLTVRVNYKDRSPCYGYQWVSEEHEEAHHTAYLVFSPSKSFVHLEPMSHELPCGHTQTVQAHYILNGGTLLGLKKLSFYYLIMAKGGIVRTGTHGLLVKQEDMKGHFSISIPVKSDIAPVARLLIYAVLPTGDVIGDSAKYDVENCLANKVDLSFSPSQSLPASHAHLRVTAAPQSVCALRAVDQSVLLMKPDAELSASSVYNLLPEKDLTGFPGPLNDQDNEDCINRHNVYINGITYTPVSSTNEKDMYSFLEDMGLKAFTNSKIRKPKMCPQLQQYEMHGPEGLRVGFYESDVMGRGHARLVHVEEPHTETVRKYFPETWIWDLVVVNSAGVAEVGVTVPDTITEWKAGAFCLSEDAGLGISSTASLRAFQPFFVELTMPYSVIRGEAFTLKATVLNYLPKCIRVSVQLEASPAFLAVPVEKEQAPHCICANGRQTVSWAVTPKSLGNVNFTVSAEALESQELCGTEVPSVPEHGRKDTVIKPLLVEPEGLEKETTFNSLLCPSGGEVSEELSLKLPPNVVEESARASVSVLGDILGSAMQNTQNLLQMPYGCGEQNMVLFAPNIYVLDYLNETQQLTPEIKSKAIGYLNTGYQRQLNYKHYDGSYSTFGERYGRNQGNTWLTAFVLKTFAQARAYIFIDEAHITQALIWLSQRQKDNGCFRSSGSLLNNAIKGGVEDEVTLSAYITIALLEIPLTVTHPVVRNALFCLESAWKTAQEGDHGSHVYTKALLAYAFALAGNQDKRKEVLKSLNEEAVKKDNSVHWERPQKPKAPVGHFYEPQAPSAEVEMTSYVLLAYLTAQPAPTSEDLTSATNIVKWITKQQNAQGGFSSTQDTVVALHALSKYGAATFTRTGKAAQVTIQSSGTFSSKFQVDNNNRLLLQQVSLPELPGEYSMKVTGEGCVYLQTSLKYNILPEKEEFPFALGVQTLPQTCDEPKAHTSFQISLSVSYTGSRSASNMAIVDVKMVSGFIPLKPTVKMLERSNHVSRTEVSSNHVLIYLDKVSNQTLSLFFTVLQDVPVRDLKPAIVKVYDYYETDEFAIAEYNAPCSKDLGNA

Sequence of Human C4, P0C0L4 (P0C0L4 whole entry, looked up): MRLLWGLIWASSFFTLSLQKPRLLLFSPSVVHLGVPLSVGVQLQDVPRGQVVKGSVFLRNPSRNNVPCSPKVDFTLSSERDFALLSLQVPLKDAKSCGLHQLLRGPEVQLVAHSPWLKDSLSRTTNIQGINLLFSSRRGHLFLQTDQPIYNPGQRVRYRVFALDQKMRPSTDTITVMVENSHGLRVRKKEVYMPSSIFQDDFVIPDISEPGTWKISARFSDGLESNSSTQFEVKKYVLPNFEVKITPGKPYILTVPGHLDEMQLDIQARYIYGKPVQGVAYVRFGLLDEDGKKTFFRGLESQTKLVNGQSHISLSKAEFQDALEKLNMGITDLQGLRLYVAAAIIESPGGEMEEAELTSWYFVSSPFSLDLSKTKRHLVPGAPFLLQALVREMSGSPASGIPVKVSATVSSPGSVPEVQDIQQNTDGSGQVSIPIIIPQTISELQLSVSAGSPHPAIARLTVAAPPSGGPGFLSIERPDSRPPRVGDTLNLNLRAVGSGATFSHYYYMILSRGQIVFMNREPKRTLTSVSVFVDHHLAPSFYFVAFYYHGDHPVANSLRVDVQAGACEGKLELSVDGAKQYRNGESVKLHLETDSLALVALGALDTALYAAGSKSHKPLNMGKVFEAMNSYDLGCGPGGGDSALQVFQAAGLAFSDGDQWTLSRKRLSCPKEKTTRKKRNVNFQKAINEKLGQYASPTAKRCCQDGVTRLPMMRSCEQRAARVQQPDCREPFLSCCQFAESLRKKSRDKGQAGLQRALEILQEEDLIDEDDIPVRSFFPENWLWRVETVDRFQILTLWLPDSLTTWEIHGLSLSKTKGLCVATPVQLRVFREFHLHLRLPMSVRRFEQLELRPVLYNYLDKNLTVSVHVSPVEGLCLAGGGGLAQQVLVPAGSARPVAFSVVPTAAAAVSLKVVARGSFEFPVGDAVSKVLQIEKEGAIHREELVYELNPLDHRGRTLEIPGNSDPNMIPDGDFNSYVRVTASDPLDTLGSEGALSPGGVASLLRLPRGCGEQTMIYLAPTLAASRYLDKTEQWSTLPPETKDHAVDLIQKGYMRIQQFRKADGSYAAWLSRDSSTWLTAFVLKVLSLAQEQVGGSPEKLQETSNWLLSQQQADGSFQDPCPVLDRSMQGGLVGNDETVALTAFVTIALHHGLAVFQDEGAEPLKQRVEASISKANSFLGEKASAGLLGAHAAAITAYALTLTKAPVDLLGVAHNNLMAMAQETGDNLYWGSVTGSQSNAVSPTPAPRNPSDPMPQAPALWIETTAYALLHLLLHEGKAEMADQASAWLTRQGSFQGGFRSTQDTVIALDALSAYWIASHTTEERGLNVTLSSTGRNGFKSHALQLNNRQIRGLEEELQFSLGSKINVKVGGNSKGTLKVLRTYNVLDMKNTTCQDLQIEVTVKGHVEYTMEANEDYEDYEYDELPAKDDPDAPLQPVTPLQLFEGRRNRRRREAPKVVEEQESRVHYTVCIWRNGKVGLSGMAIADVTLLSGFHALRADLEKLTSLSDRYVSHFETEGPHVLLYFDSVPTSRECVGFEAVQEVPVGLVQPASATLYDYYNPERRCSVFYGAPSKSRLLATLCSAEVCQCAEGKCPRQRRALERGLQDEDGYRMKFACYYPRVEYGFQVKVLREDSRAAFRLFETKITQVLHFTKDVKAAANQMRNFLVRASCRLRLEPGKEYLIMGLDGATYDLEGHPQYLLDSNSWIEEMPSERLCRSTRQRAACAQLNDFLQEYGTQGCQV

B1: C1r SP fragment (wild-type) (protein)
chain 1: STQACGKPVNPVEQRQR
chain 2: IIGGQKAKMGNFPWQVFTNIHGRGGGALLGDRWILTAAHTLYPKEHEAQSNASLDVFLGHTNVEELMKLGNHPIRRVSVHPDYRQDESYNFEGDIALLELENSVTLGPNLLPICLPDNDTFYDLGLMGYVSGFGVMEEKIAHDLRFVRLPVANPQACENWLRGKNRMDVFSQNMFCAGHPSLKQDACQGDSGGVFAVRDPNTDRWVATGIVSWGIGCSRGYGFYTKVLNYVDWIKKEMEEED
For the protein B1, the kcat/KM, cleavage of S654A zymogen in data set [1] amounted to 72000 s^-1M^-1; in data set [2], 75000 s^-1M^-1; in the data set with C1r SP S654A, P00736, 71000 s^-1M^-1. For the same protein, in the data set with Proenzyme C1s, P09871, the kcat/KM, C1s cleavage worked out at 28000 s^-1M^-1.

B2: C1r CCP2-SP fragment (wild-type) (protein)
chain 1: STQACGQPRNLPNGDFRYTTTMGVNTYKARIQYYCHEPYYKMQTRAGSRESEQGVYTCTAQGIWKNEQKGEKIPRCLPVCGKPVNPVEQRQR
chain 2: IIGGQKAKMGNFPWQVFTNIHGRGGGALLGDRWILTAAHTLYPKEHEAQSNASLDVFLGHTNVEELMKLGNHPIRRVSVHPDYRQDESYNFEGDIALLELENSVTLGPNLLPICLPDNDTFYDLGLMGYVSGFGVMEEKIAHDLRFVRLPVANPQACENWLRGKNRMDVFSQNMFCAGHPSLKQDACQGDSGGVFAVRDPNTDRWVATGIVSWGIGCSRGYGFYTKVLNYVDWIKKEMEEED
B2: the kcat/KM, cleavage of S654A zymogen was 74000 s^-1M^-1 in data set [1]; 130000 s^-1M^-1 in data set [2]; 68000 s^-1M^-1 with C1r SP S654A, P00736. The kcat/KM, C1s cleavage with Proenzyme C1s, P09871 was found to be 208000 s^-1M^-1.

B3: MASP-2 CCP2-SP fragment (protein)
chain 1: ASMTIVDCGPPDDLPSGRVEYITGPGVTTYKAVIQYSCEETFYTMKVNDGKYVCEADGFWTSSKGEKSLPVCEPVCGLSARTTGGR
chain 2: IYGGQKAKPGDFPWQVLILGGTTAAGALLYDNWVLTAAHAVYEQKHDASALDIRMGTLKRLSPHYTQAWSEAVFIHEGYTHDAGFDNDIALIKLNNKVVINSNITPICLPRKEAESFMRTDDIGTASGWGLTQRGFLARNLMYVDIPIVDHQKCTAAYEKPPYPRGSVTANMLCAGLESGGKDSCRGDSGGALVFLDSETERWFVGGIVSWGSMNCGEAGQYGVYTKVINYIPWIENIISDF
In the case of B3, in the data set with Human C2, P06681, the KM, C2 cleavage worked out at 2.7 µM; the kcat, C2 cleavage came to 3 s⁻¹; the kcat/KM, C2 cleavage stood at 1.3e+06 M⁻¹ s⁻¹. For the same protein, in the data set with Human C4, P0C0L4, the KM, C4 cleavage was 0.4 µM; the “fold increase in the kcat/KM value of C4 cleavage against the SP domain alone” value is reported as “a 44-fold increase in the kcat/KM value”; the kcat, C4 cleavage is 2 s⁻¹; the kcat/KM, C4 cleavage was determined as 5.7e+06 M⁻¹ s⁻¹. In addition, the “molar excess needed to abolish cleavage of complement substrates” value in data set [3] is recorded as “or with a large molar excess (40 fold) of alpha-2-macroglobulin”.

B4: MASP-2 SP fragment (protein)
chain 1: ASMTPVCGLSARTTGGR
chain 2: IYGGQKAKPGDFPWQVLILGGTTAAGALLYDNWVLTAAHAVYEQKHDASALDIRMGTLKRLSPHYTQAWSEAVFIHEGYTHDAGFDNDIALIKLNNKVVINSNITPICLPRKEAESFMRTDDIGTASGWGLTQRGFLARNLMYVDIPIVDHQKCTAAYEKPPYPRGSVTANMLCAGLESGGKDSCRGDSGGALVFLDSETERWFVGGIVSWGSMNCGEAGQYGVYTKVINYIPWIENIISDF
For B4, in the data set with Human C2, P06681, the KM, C2 cleavage was found to be 3.2 µM; the kcat, C2 cleavage came to 3.9 s⁻¹; the kcat/KM, C2 cleavage is 2.5e+06 M⁻¹ s⁻¹. In the data set with Human C4, P0C0L4, the KM, C4 cleavage worked out at 2 µM; the kcat, C4 cleavage came to 0.2 s⁻¹; the kcat/KM, C4 cleavage was found to be 130000 M⁻¹ s⁻¹. In data set [3], the “molar excess needed to abolish cleavage of complement substrates” value is “or with a large molar excess (40 fold) of alpha-2-macroglobulin”.
